Test results from paper doi:10.1101/2025.09.22.677823.

Experiments:
[1] = target: Human adenovirus 7 fiber (human adenovirus 7); assay: cryo-EM structure
[2] = target: Human adenovirus 7 penton base (human adenovirus 7); assay: cryo-EM structure

Substance	stoichiometry N [1]	stoichiometry N [2]
Human adenovirus 7 fiber (natural protein)	3	
Human adenovirus 7 penton base (natural protein)		5
